According to US20040192900A1:

Tests used:
[1] = target: Fc-CD22 (UniProt P20273); assay: SPR (BIAcore 2000); 2nd mAb on Fc-CD22 pre-saturated with G5/44 (competitor G5/44)
[2] = target: Fc-CD22 (UniProt P20273); assay: SPR (BIAcore 2000); Fc-CD22 pre-saturated with G5/44 (competitor G5/44); combined response of G5/44 and 2nd mAb
[3] = target: Fc-CD22 (UniProt P20273); assay: SPR (BIAcore 2000); inhibition of 2nd mAb binding to Fc-CD22 by prior saturation with G5/44 (competitor G5/44)
[4] = target: Fc-CD22 (UniProt P20273); assay: SPR (BIAcore 2000); 2nd mAb on Fc-CD22 without G5/44

| Response 3 (Response 2-1) (RU) [1] | Response 3 adjusted for OFF rate of G544 (RU) [1] | Response 2 after 2nd Anti-CD22 mAb (RU) [2] | Inhibition by G544 (%) [3] | Binding of 2nd mAb without G544 adjusted for background (RU) [4] | Substance |
| --- | --- | --- | --- | --- | --- |
| -83.5 RU | 0 RU | 603 RU | 0% |  | anti-CD19 antibody BU12 (Celltech, Slough, UK) |
| 652 RU | 736 RU | 1340 RU | 0% | 739 RU | anti-CD22 mAb 4KB128 (Dako Corp) (antibody) |
| -81.8 RU | 1.7 RU | 629 RU | 91% | 19.3 RU | anti-CD22 mAb HD239 (Santa Cruz Biotech) (antibody) |
| -74.5 RU | 9 RU | 580 RU | 69% | 29.3 RU | anti-CD22 mAb SHCL-1, Leu 14 (Becton Dickinson) (antibody) |
| 487 RU | 570 RU | 1160 RU | 7% | 615 RU | anti-CD22 mAb To 15 (Dako Corp) (antibody) |
